doi:10.64898/2025.12.30.697075
Values joined by “and” are separate entries in the source; they are usually repeats but may differ in a detail not shown here. Equal entries are not always repeated.

Columns and labels:
[1] = target: pennycress (Thlaspi arvense) biotin carboxylase (BC) subunit of the plastid heteromeric acetyl-CoA carboxylase (Thlaspi arvense (field pennycress)); experiment: cryo-EM structure
[2] = target: pennycress (Thlaspi arvense) biotin carboxylase (BC) subunit of the plastid heteromeric acetyl-CoA carboxylase (Thlaspi arvense (field pennycress)); experiment: cross-linking

pennycress (Thlaspi arvense) biotin carboxylase (BC) subunit of the plastid heteromeric acetyl-CoA carboxylase (enzyme)
stoichiometry N [1]: 2 and 4 and 6
stoichiometry N [2]: 2 and 4
